Key:
[1] = Plasma PK profile in patients dosed with XMT-1536; type: in vivo, human; conditions: 30 patients, 3 to 40 mg/m^2, total antibody, conjugated drug, free drug, AF
Method: The PK profile of the active ingredient of XMT-1536, its release product and selected metabolites are determined for each patient by non-compartmental analysis using standard PK software (e.g., Phoenix WinNonlin). PK parameters per patient include time of maximum observed concentration (tmax), maximum concentration (Cmax), and area under the concentration curve for the last measurable concentration (AUC0-last). When the terminal elimination phase is identified, additional parameters such as elimination half-life, clearance, and volume of distribution are determined.
The plasma PK profile for the analytes (total antibody; conjugated drug (AF-HPA); free drug (AF-HPA) and the drug metabolite auristatin F (AF)) was determined in blood samples from 30 patients (3 mg/m^2, n=1; 6 mg/m^2, n=1; 12 mg/m^2, n=7; 20 mg/m^2, n=15; 30 mg/m^2, n=5; 40 mg/m^2, n=1). […] The PK characteristics is consistent with that reported for other approved antibody-drug conjugates or those currently in clinical development.

[2] = test system: NaPi2b expressing tumors; test: Phase 1b study of XMT-1536: tumor response per RECIST version 1.1; type: in vivo, human; conditions: for decrease in diameter of target lesions: DL4A (20 mg/m^2)
Source text: The study presented herein is an open label, multi-center Phase 1b study of XMT-1536 administered as an intravenous infusion once every three or four weeks. The dose escalation (DES) part of the study will establish the maximum tolerated dose (MTD) or recommended Phase 2 dose (RP2D) for XMT-1536 in patients with a number of tumor types likely to express NaPi2b, with a focus on patients with platinum-resistant ovarian cancer and non-squamous non-small cell lung cancer (NSCLC). […] The RP2D may differ from the MTD and may take into account tolerability, pharmacokinetic and pharmacodynamic measures, and efficacy of XMT-1536 based on RECIST 1.1. After the first cycle, patients may continue to receive XMT-1536 until disease progression provided the drug is well-tolerated and patients continue to derive clinical benefit in the opinion of the Investigator. The DES segment of the study utilized an accelerated titration design. The first 3-week cycle of treatment constitutes the dose limiting toxicity (DLT) evaluation period. For the first two dose levels, a minimum of 1 patient was treated at each dose level. If this patient experiences a treatment-emergent adverse event of Grade 2 or higher, 2 additional patients will be added at this dose level, and the study will subsequently follow a 3+3 design, as described below. […] Starting with Dose Level 3, the study will follow a standard 3+3 design, with 3 patients enrolled initially at each dose level. […] However, in the event of 1 DLT, 3 additional patients will be enrolled at the same dose level. Any dose level with 2 or more DLTs will be considered to exceed the MTD and subsequent patients will be enrolled at lower dose level(s). After the first cycle, patients may continue to receive XMT-1536 until disease progression if the drug is well-tolerated and patients continue to derive clinical benefit in the opinion of the Investigator.
All adverse events will be graded according to the National Cancer Institute (NCI) Common Terminology Criteria version (CTCAE v4.03). The observation period for DLTs is 56 days, between Day 1 through end of Cycle 2 which includes the pre-dose assessments before receiving the Cycle 3 dose. In general, adverse events Grade ≥3 are DLTs with modifications for the following criteria: neutropenia hematologic toxicities, gastrointestinal toxicities, hepatic toxicities, and electrolyte imbalances. XMT-1536-related toxicity that delays initiation of Cycle 3 by more than 2 weeks, hospitalization to treat an infusion-related reaction, and any toxicity that prompts modification of the dose to be administered in Cycle 3 are also DLTs. Blood sampling will be performed to determine plasma PK parameters of XMT-1536, its release product auristatin F-HPA, and select metabolites. Testing for anti-drug antibodies (ADA) and neutralizing antibodies (nAb) will be performed. Tumor responses will be Investigator-assessed using Response Evaluation Criteria in Solid Tumors (RECIST), version 1.1, at the end of Cycle 2 and every 2 cycles thereafter.
In both segments of the study assessments with computerized tomography (CT) scans and RECIST version 1.1 criteria are performed at the end of Cycle 2 and at the end of every even-numbered cycle thereafter. Patients are continuously evaluated for adverse events, the use of concomitant medications, and the occurrence of infusion reactions in any cycle. Pharmacokinetic profiles of XMT-1536 and select release products/metabolites and the development of anti-drug antibodies are evaluated. RECIST version 1.1, is used to measure tumor response. The objective response rate (ORR—rate of complete response [CR] and partial response [PR]) and disease control rate (DCR—rate of CR, PR, and stable disease [SD]) will be measured for each cohort. Response duration, progression-free survival (PFS) and overall survival (OS) is estimated.
The primary analysis of efficacy is performed using both DES and EXP data. […]

[3] = All NSCLC, N 3, RECIST version 1.1
[4] = All Ovarian Cancer (OC), N 19, RECIST version 1.1
[5] = NSCLC ≥ 20 mg/m^2, N 2, RECIST version 1.1
[6] = OC + NSCLC ≥ 20 mg/m^2, N 18, RECIST version 1.1
[7] = OC ≥ 20 mg/m^2, N 16, RECIST version 1.1
[8] = OC ≥ 30 mg/m^2, N 7, RECIST version 1.1
[9] = ovarian cancer and lung adenocarcinoma, ≥20 mg/m^2 (N=18)

B1: XMT-1536: about 10-15 molecules of auristatin F-hydroxypropyl amide conjugated to a cysteine moiety of NaPi2b monoclonal antibody XMT-1535 via a PHF scaffold (conjugate, chains of the INN, looked up)
VH: QVQLVQSGAEVVKPGASVKMSCKASGYTFTGYNIHWVKQAPGQGLEWIGAIYPGNGDTSYKQKFRGRATLTADTSTSTVYMELSSLRSEDSAVYYCARGETARATFAYWGQGTLVTVSS
VL: DIQMTQSPSSLSASVGDRVTITCSASQDIGNFLNWYQQKPGKTVKVLIYYTSSLYSGVPSRFSGSGSGTDYTLTISSLQPEDFATYYCQQYSKLPLTFGQGTKLELK
modifications: auristatin F-hydroxypropyl amide via PHF scaffold
notes: about 10-15 molecules of auristatin F-hydroxypropyl amide conjugated to a cysteine moiety of NaPi2b monoclonal antibody XMT-1535 via a PHF scaffold
[1]
  exposure with increasing doses, normalized to dose: nearly dose proportional
[2]; All NSCLC, N 3
  DCR (PR + SD): 67%
  DCR (PR + SD), patients: 2
[2]; [3]
  PD: 33%
  PD, patients: 1
  PR: 0 (0%)
  PR, patients: 0 (0%)
[2]; All Ovarian Cancer (OC), N 19
  DCR (PR + SD): 58%
  DCR (PR + SD), patients: 11
[2]; [4]
  PD: 42%
  PD, patients: 8
  PR: 16%
  PR, patients: 3
[2]; DL 4A
  patients who reached partial remission: one
[2]; NSCLC ≥ 20 mg/m^2, N 2
  DCR (PR + SD): 100%
  DCR (PR + SD), patients: 2
[2]; [5]
  PD: 0 (0%)
  PD, patients: 0 (0%)
  PR: 0 (0%)
  PR, patients: 0 (0%)
[2]; OC + NSCLC ≥ 20 mg/m^2, N 18
  DCR (PR + SD): 61%
  DCR (PR + SD), patients: 11
[2]; [6]
  PD: 39%
  PD, patients: 7
  PR: 17%
  PR, patients: 3
[2]; OC ≥ 20 mg/m^2, N 16
  DCR (PR + SD): 57%
  DCR (PR + SD), patients: 9
[2]; [7]
  PD: 43%
  PD, patients: 7
  PR: 19%
  PR, patients: 3
[2]; OC ≥ 30 mg/m^2, N 7
  DCR (PR + SD): 71%
  DCR (PR + SD), patients: 5
[2]; [8]
  PD: 28%
  PD, patients: 2
  PR: 28%
  PR, patients: 2
[2]; change in tumor size by dose level
  dose response of best response by RECIST (waterfall plot): there appears to be a dose response
[2]; conclusions
  anti-tumor activity: early signs of anti-tumor activity
[2]; doses of 20 mg/m^2 and higher
  objective responses: Objective responses have been observed
[2]; doses of 20 mg/m^2 or higher
  clinical activity based on objective responses and duration of treatment: clinical activity was observed
[2]; [9]
  DCR: 61%
  ORR: 17%
  PRs: 17%
  PRs, patients: 3
  SDs: 44%
  SDs, patients: 8
[2]; patients treated with at least 12 mg/m^2, every three weeks, RECIST version 1.1
  disease control rate: 67%
[2]; person, platinum-resistant high-grade serous ovarian cancer, end of Cycle 2
  decrease in diameter of target lesions: 40%
[2]; same patient, end of Cycle 3
  decrease in diameter of target lesions: 75%
[2]; starting at DL 5
  patients who reached nearly partial remission: two
[2]; ten patients with post-treatment restaging scans, as of February 2019
  patients with stable disease (SD) as best response: 9
[2]; time on study by dose level and tumor type
  outcome by dose level (swimmers plot): At lower doses the majority of patients came off study because of progressive disease, but starting at DL4, most patients had stable disease

From patent publication US11407825B2, “NaPi2b-targeted polymer antibody-drug conjugates and methods of use thereof” (Mersana Therapeutics, Inc., priority 2018, dated 2022)
